Measured values from IntAct's records for PubMed 18680311.

Target: sh3k1_human SH3KBP1 (UniProt Q96B97)

Polyubiquitin-C (Homo sapiens) (from UniProt P0CG48) K6E
effect of a mutation on the interaction: decreasing interaction
